Experiments:
HT29 tumor [1] = experiment: TUNEL analysis of HT29 tumor tissue; format: in vivo, mouse; details: HT29 tumor tissue at the end of the study
HT29 cells [2] = experiment: Annexin V early apoptosis flow cytometry, HT29; format: cell-based, human; details: HT29, low concentrations, 24 hours
Description: (§1) HepG2, HT29, or MCF7 cells (1.5×10^4) were cultured in a 96-well plate for 1 day, after which DOX-TTPNs, DOX-FTNs, free DOX, empty TTPNs, or buffer was added to each well. After 24 hours, cell viability was measured using a CCK-8 assay (Dojindo Molecular Technologies) according to the manufacturer's instructions. For analysis of early apoptosis, HT29 cells in 6-18 well culture plate were treated with DOX-TTPNs, free DOX, empty TTPNs, or buffer for 24 hours. Thereafter, cells were incubated with Alexa Fluor 488-conjugated annexin V (Invitrogen) 20 for 15 minutes, then analyzed using an Accuri™ C6 flow cytometer (BD Biosciences) and FlowJo 21 v10 software.

[3] = tested on: cleaved form of caspase-3; experiment: Western blot of HT29 lysates: cleaved caspase-3; format: cell-based, human; details: HT29, 50 nM, 24 hours
Description: (§2) After incubating HT29 cells with 50 nM DOX-TTPNs, DOX-FTNs, free DOX, or buffer for 24 hours, cells were lysed with radioimmunoprecipitation assay (RIPA) buffer (Cell Signaling Technology) and the concentration of proteins was measured using a DC protein assay kit (Bio-Rad). Equal amounts of proteins (30 μg) were resolved by SDS-PAGE and transferred to nitrocellulose membranes. After blocking with 5% skim milk in Tris-buffered saline containing 0.1% Tween-20 (TBST), membranes were incubated first with anti-Cl-PARP, anti-Cl-caspase-6, anti-cFLIP, anti-Bcl-xL, anti-XIAP, anti-Cl-caspase-3, or anti-GAPDH primary antibody (Cell Signaling Technology), and then with anti-mouse or anti-rabbit secondary antibodies (Sigma-Aldrich), as appropriate. Immunoreactive proteins were visualized using enhanced chemiluminescence (ECL) chemical reagents (Bio-Rad) and ChemiDoc (Bio-Rad), and were analyzed using ImageJ software.

XIAP = experiment: Western blot of HT29 lysates: XIAP; format: cell-based, human; details: HT29, 24 hours
Description: as §2

HT29 cells [4] = experiment: Cell viability, CCK-8 assay, HT29; format: cell-based, human; details: HT29, 250 nM (DOX 3.5 μg/ml), 24 hours
Description: as §1

DR5 [5] = experiment: Western blot time course of DR5 levels in HT29; format: cell-based, human; details: HT29, 4, 12 and 24 hours
HT29 tumor [6] = experiment: Antitumor efficacy, HT29 xenograft; format: in vivo, mouse; details: i.v. five times every 2 days, DOX-TTPNs 30 mg/kg, DOX 0.4 mg/kg, DOX-FTNs 15 mg/kg, empty TTPNs 30 mg/kg
PARP = experiment: Western blot of HT29 lysates: PARP; format: cell-based, human; details: HT29, 24 hours
Description: as §2

[7] = mice (Chatterjee et al.); cited from earlier work
HepG2 cells [8] = experiment: Annexin V/PI flow cytometry of apoptosis, HepG2; format: cell-based, human; details: for surviving tumor cells (Annexin V/PI double negative): 24 hours
Description: FIG. 19 is a series of histograms representing flow cytometry analysis of TRAIL-mediated apoptosis of HepG2 cells as an analysis of in vitro TTPN-mediated apoptosis on TRAIL-sensitive-HepG2 cells. Cells were incubated for 24 hours in the presence of different concentrations of mTRAIL and TTPN and analyzed by Annexin V/PI double staining.
In addition, to investigate whether apoptosis induced by TTPN is induced by the pro-apoptosis pathway of tumor cells, fluorescence-activated cell sorting (FACS) using double staining of Annexin V/propidium iodide (PI) was performed. […] (FIG. 21).

HepG2 cells [9] = experiment: Cell viability, CCK-8 assay, HepG2; format: cell-based, human; details: HepG2
Description: After culturing for 24 hours, cell viability was measured using a cell counting kit (CCK)-8 assay (Dojindo Molecular Technologies, Gaithersburg, Md.). The plate was then read with an absorbance microplate reader (Spectramax 340, Molecular Devices Corporation) at a wavelength of 450 nm and 50% effective by regression analysis using SigmaPlot software (Systat Software, Inc., San Jose, Calif.). The concentration value was calculated.

HepG2 tumor [10] = experiment: TUNEL analysis of HepG2 tumor tissue; format: in vivo, mouse; details: 15th day after first injection
Description: In the evaluation of the anti-tumor effect of the present invention, BALB/c nude male mice (6-7 weeks old) were used as an animal model. Particularly, HT29 cells (5×10^6) and HepG2 cells (5×10^6) were subcutaneously inoculated into the left dorsal flank of BALB/c nude mice, respectively. After a volume of tumors reached ˜80-100 mm^3, mice were randomly divided into the 14 following five treatment groups (6 mice/group); DOX-TTPNs, DOX-FTNs, free DOX, empty TTPNs, and buffer. Mice were intravenously injected five times, once every 2 days, and volume of tumors was determined as 1/2(Length×Width^2). Apoptotic cell death in tumor tissues was analyzed using TUNEL staining (In situ Cell Death Detection kit; Roche), and cells were stained with DAPI (4′,6-diamidino-2-phenylindole), as previously described (Kih et al., Biomaterials 180: 67-77, 2018). Apoptotic cells were visualized under a Nikon Eclipse Ti microscope (Nikon) and quantified as the number of TUNEL-positive cells per total number of cells using ImageJ software. […]
(§3) In addition, to investigate whether tumor growth inhibition by TTPN is induced by apoptosis-inducing activity on tumor cells, tumor tissues from the treated mice were analyzed. On the 15th day after the first injection, mice were euthanized, and apoptosis of tumor tissues was analyzed using terminal deoxynucleotidyl transferase dUTP nick end labeling (TUNEL) staining.

DR4 = biological target: T1, DR4 (Homo sapiens, UniProt O00220); experiment: SPR binding to immobilized DR4-Fc; details: DR4-Fc immobilized, 25° C.
T1 construct: purchased R&D systems 347-DR-100
Description: (§4) Binding experiments of TTPN and mTRAIL to TRAIL receptors DR4 and DR5 were analyzed at 25° C. using a surface plasmon resonance apparatus (SR7500 DC, Reichert Inc., NY, USA). DR4 and DR5-fc chimeric proteins (R&D systems 347-DR-100, 631-T2-100) were immobilized on the surface of the Planar Protein A sensor chip (Reichert, 13206069) and the receptors were coated at a level of 300 to 500 resonance units. SPR kinetic titrations were performed by adding 250 μl of TTPN and mTRAIL with different concentrations in the range of 1.56 to 400 nM and 0.1 to 25.6 μM, respectively, increasing by four times. Each analyte was run at 50 μL/min using running and sample buffer (0.5 M Tris-HCl (pH 7.4), 150 mM NaCl, 0.005% Tween 20), and binding of the ligand to the receptor was performed and monitored in real time. For titration sensorgrams, a simple 1:1 Langmuir interaction model (A+B↔AB) was applied using the data analysis program Scrubber 2.0 (BioLogic Software, Australia, and KaleidaGraph Software, Australia) and CLAMP software.
(§5) The affinity KD was determined from the formula of KD=kd/ka. Results are based on representative sensorgrams obtained from saturation binding reactions averaged over at least three independent runs of SPR measurements (FIG. 31).

[11] = biological target: TRAIL R1 (death receptor 4, DR4) on the surface of tumor cells (human, UniProt O00220 24-468); experiment: cell-based or functional assay
[12] = biological target: TRAIL R2 (death receptor 5, DR5) on the surface of tumor cells (human, UniProt O14763 56-440); experiment: cell-based or functional assay
HepG2 tumor [13] = experiment: Antitumor efficacy, HepG2 xenograft; format: in vivo, mouse; details: i.v. every 2 days, TTPN 23 mg/kg, mTRAIL 12 mg/kg
Description: In the evaluation of the anti-tumor effect of the present invention, BALB/c nude male mice (6-7 weeks old) were used as an animal model. Particularly, HT29 cells (5×10^6) and HepG2 cells (5×10^6) were subcutaneously inoculated into the left dorsal flank of BALB/c nude mice, respectively. After a volume of tumors reached ˜80-100 mm^3, mice were randomly divided into the 14 following five treatment groups (6 mice/group); DOX-TTPNs, DOX-FTNs, free DOX, empty TTPNs, and buffer. Mice were intravenously injected five times, once every 2 days, and volume of tumors was determined as 1/2(Length×Width^2). Apoptotic cell death in tumor tissues was analyzed using TUNEL staining (In situ Cell Death Detection kit; Roche), and cells were stained with DAPI (4′,6-diamidino-2-phenylindole), as previously described (Kih et al., Biomaterials 180: 67-77, 2018). Apoptotic cells were visualized under a Nikon Eclipse Ti microscope (Nikon) and quantified as the number of TUNEL-positive cells per total number of cells using ImageJ software. After 21 days from injecting tumor cells, tumor tissues were excised from the experimental mice, and cryo-sections (3.5 μm) were fixed with 10% neutral buffered formalin and paraffin-embedded tissue blocks.
as §3

[14] = In vitro stability (soluble protein in buffer over time); format: physicochemical
Description: The stability of TTPN, DOX-TTPN and mTRAIL was investigated by measuring changes of concentration in a suitable buffer solution. […] At predetermined times, aggregated proteins were collected at 13,000 rpm for 10 minutes, and the concentration of soluble DOX-TTPN and TTPN in the supernatant was measured using absorbance in UV280.

[15] = biological target: T2, DR4-Fc chimeric protein (R&D systems 347-DR-100) (UniProt O00220 24-239); experiment: SPR, DR4-Fc captured on Protein A chip, 25° C., 1:1 Langmuir model
T2 construct: Bought (R&D systems 347-DR-100); Captured on a Protein A sensor chip; also called TRAIL R1; death receptor 4; Fc part of the bought chimera not given
Description: DR4 and DR5-fc chimeric proteins (R&D systems 347-DR-100, 631-T2-100) were immobilized on the surface of the Planar Protein A sensor chip (Reichert, 13206069) and the receptors were coated at a level of 300 to 500 resonance units. […] Each analyte was run at 50 μL/min using running and sample buffer (0.5 M Tris-HCl (pH 7.4), 150 mM NaCl, 0.005% Tween 20), and binding of the ligand to the receptor was performed and monitored in real time. For titration sensorgrams, a simple 1:1 Langmuir interaction model (A+B↔AB) was applied using the data analysis program Scrubber 2.0 (BioLogic Software, Australia, and KaleidaGraph Software, Australia) and CLAMP software.
The affinity KD was determined from the formula of KD=kd/ka.

[16] = within 21 days (Kih et al.); cited from earlier work
DR5 [17] = biological target: T3, DR5 (Homo sapiens, UniProt O14763); experiment: SPR binding to immobilized DR5-Fc
T3 construct: purchased R&D systems 631-T2-100
Description: as §4, §5

## COc1cccc2c1C(=O)c1c(O)c3c(c(O)c1C2=O)C[C@@](O)(C(=O)CO)C[C@@H]3O[C@H]1C[C@H](N)[C@H](O)[C@H](C)O1 [free DOX, doxorubicin, reference compound]
HT29 tumor [1]
  TUNEL-positive tumor cells: 0.07%
HT29 cells [2]
  induction of early apoptosis: ineffective in inducing apoptosis
[3]
  cleaved caspase-3 (and PARP) expression: little change
XIAP
  decrease in XIAP levels compared with buffer treatment: 34 fold
HT29 cells [4]
  cell death compared with controls: 36%
DR5 [5]
  DR5 expression levels over time: substantial increase in DR5 expression at 4 hours
HT29 tumor [6]
  decrease of tumor volumes: no significant tumor-inhibition effect
PARP
  increase in PARP relative to buffer-treated controls (defined as 1): 811 fold
[7]
  dose at which side effects can be exhibited: greater than 1 mg/kg

B1: monomeric TRAIL (mTRAIL) extracellular domain (ligand)
chain: MTSEETISTVQEKQQNISPLVRERGPQRVAAHITGTRGRSNTLSSPNSKNEKALGRKINSWESSRSGHSFLSNLHLRNGELVIHEKGFYYIYSQTYFRFQEEIKENTKNDKQMVQYIYKYTSYPDPILLMKSARNSCWSKDAEYGLYSIYQGGIFELKENDRIFVSVTNEHLIDMDHEASFFGAFLVG
notes: Expressed in E. coli from pET28a-mTRAIL and purified on Ni-NTA; a vector tag is not spelled out
HepG2 cells [8]; HepG2, 0.4 nM
  surviving tumor cells (Annexin V/PI double negative): 94.3%
HepG2 cells [8]; HepG2, 100 nM
  surviving tumor cells (Annexin V/PI double negative): 82.9%
HepG2 cells [8]; HepG2, 24 hours (FIG. 20)
  concentration at which Annexin V-positive cells were detected: 25 nM
HepG2 cells [9]
  IC50 relative to TTPN: 30 times
HepG2 tumor [10]
  TUNEL-positive tumor cells: 18.9%
DR4
  ka: 8.68 (±7.12) · 10^2 M^−1 · S^−1
  kd: 5.27 (±2.14) · 10^−5 s^−1
[11]
  IC50, cell viability of HepG2 cells (CCK-8, 24 hours): 405 nM
[12]
  IC50, cell viability of HepG2 cells (CCK-8, 24 hours): 405 nM
HepG2 tumor [13]
  inhibition of tumor volume: 25.98%
[14]; 15 mg/mL in PBS buffer for 24 hours (FIG. 15)
  stability in solution: precipitated and aggregated rapidly
[14]; within 2 days, 10 mg/mL (FIG. 16)
  amount in the soluble form, of the initial concentration: 57%
[15]
  Kd: 247 nM
  koff: 5.27e-05 s⁻¹
  kon: 868 M⁻¹ s⁻¹
[16]
  fraction showing rapid aggregation: ~50%
DR5 [17]; 25° C.
  ka: 1.48 (±0.12) · 10^3 M^−1 · S^−1
  kd: 3.87 (±1.13) · 10^−5 s^−1
DR5 [17]; KD=kd/ka
  Kd: 25.4 nM

— patent US20210054047A1, “NOVEL ANTICANCER FUSION PROTEIN AND USE THEREOF” (KOREA INSTITUTE OF SCIENCE AND TECHNOLOGY, priority 2018, published 2021)
